This is an account of results in paper PMC8421226, “Structural basis for glucocorticoid receptor recognition of both unmodified and methylated binding sites, precursors of a modern recognition element” (Nucleic Acids Research, 2021).

The test system of data set [1] is AncGR1 DBD (reconstructed ancestral). Put plainly: fluorescence polarization. To be noted: FP: 20 mM Tris-HCl pH 7.4, 150 mM NaCl, 5% glycerol, 10 nM FAM-DNA, 1 nM-50 uM DBD, temperature not stated. For orientation: Polarisation of emitted light reports the rotation of a fluorescent probe.
Data set [2] has as its system AncCR DBD (reconstructed ancestral). Put plainly: fluorescence polarization. As to conditions: FP: 20 mM Tris-HCl pH 7.4, 150 mM NaCl, 5% glycerol, 10 nM FAM-DNA, 1 nM-50 uM DBD, temperature not stated.
In data set [3] the test system is AncSR2 DBD (reconstructed ancestral). In words: fluorescence polarization. To be noted: FP: 20 mM Tris-HCl pH 7.4, 150 mM NaCl, 5% glycerol, 10 nM FAM-DNA, 1 nM-50 uM DBD, temperature not stated.
Data set [4] deals with the molecule itself. In words: crystal structure; GR DBD with 5mC-GBS or pre-GBS DNA duplex, 2:1 protein:DNA molar ratio; hanging drop vapor diffusion, 50 mM sodium cacodylate pH 6.5, 80 mM calcium chloride, 1% glycerol, 7% or 8.5% PEG 400; dimer of DBD on DNA in the asymmetric unit.
Data set [5] deals with T1, GR DBD (human, UniProt P04150 418-493). In words: fluorescence polarization; FP: 20 mM Tris-HCl pH 7.4, 150 mM NaCl, 5% glycerol; 10 nM FAM-DNA, 1 nM-50 uM DBD; temperature not stated. To be noted: protein: recombinant, tags: 6xHis (pMCSG7 vector), chain copies: 2, label: 5' FAM on strand 1.
Data set [6] addresses T1, GR DBD. In words: X-ray crystallography (2.5 A); DBD dimer; FP: 20 mM Tris-HCl pH 7.4, 150 mM NaCl, 5% glycerol; 10 nM FAM-DNA, 1 nM-50 uM DBD; temperature not stated. To be noted: protein: recombinant; tags: 6xHis (pMCSG7 vector); chain copies: 2.
The target in data set [7] is T1, GR DBD. Put plainly: X-ray crystallography (2.0 A); DBD dimer; FP: 20 mM Tris-HCl pH 7.4, 150 mM NaCl, 5% glycerol; 10 nM FAM-DNA, 1 nM-50 uM DBD; temperature not stated. To be noted: protein: recombinant; tags: 6xHis (pMCSG7 vector); chain copies: 2.
Where [8] appears, read: 5mC at CpG, methyl at mC10 of AGAACGGAGCGTTCT (C12 of strand) seen in structure, other positions in Figure 3A.

T1 sequence (P04150 418-493): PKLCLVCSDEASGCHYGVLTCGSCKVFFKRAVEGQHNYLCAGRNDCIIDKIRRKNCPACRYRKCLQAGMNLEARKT

The Kd is the concentration at which binding is half-saturated. Turning to “CCAGAACGGAGCGTTCTGA (double strand) [5mC-GBS]”, the values for the dissociation constant Kd in data set [1] (setting [8]), in data set [2] (setting [8]) and in data set [3] (setting [8]) were 78 nM, 318 nM and 443 nM, respectively.

Regarding “CCAGAACGGAGCGTTCTGA / TCAGAACGCTCCGTTCTG [pre-GBS]”, the Kd was 139 nM in data set [1], 575 nM in data set [2] and 811 nM in data set [3].

B1: human glucocorticoid receptor DNA-binding domain (domain or fragment)
chain: PPKLCLVCSDEASGCHYGVLTCGSCKVFFKRAVEGQHNYLCAGRNDCIIDKIRRKNCPACRYRKCLQAGMNLEAR
notes: Cloned into the pMCSG7 vector; In the crystals two DBD copies sit on one DNA duplex (5mC-GBS or pre-GBS); also called GR DBD; GR; source: E. coli BL21 (DE3) pLysS, purified (His-Trap, gel filtration)
What is called stoichiometry N is a count of units in the complex or per binding partner. Turning to B1, the “stoichiometry N” value in data set [4] turned out to be 2.

B2: 5mC-GBS (dsDNA)
DNA 1: CCAGAACGGAGCGTTCTGA
DNA 2: TCAGAACGCTCCGTTCTGG
modifications: 5mC at CpG; methyl at mC10 of AGAACGGAGCGTTCT (C12 of strand) seen in structure, other positions in Figure 3A
With B2, in the data set with GR DBD [5] (blunt), the Kd amounted to 131 nM.

B3: pre-GBS crystal DNA (dsDNA)
DNA 1: CCAGAACGGAGCGTTCTG
DNA 2: TCAGAACGCTCCGTTCTG
Turning to B3, in the data set with GR DBD [6], the binding result is “binds”.

B4: pre-GBS (dsDNA)
DNA 1: CCAGAACGGAGCGTTCTGA
DNA 2: TCAGAACGCTCCGTTCTG
As for B4, in the data set with GR DBD [5] (as printed the second strand lacks its 3' terminal G (5' overhang 1 nt on strand 1), possibly a misprint), the Kd stood at 206 nM.

B5: 5mC-GBS crystal DNA (dsDNA)
DNA 1: CCAGAACGGAGCGTTCTG
DNA 2: TCAGAACGCTCCGTTCTG
modifications: 5mC at CpG (mC10)
Take B5: in the data set with GR DBD [7], the binding result is recorded as “binds”.

B6: GBS (dsDNA)
DNA 1: TGAGAACAGAGTGTTCTTT
DNA 2: AAAGAACACTCTGTTCTCA
Regarding B6, the dissociation constant (Kd) with GR DBD [5] (blunt) came to 73 nM.
